Test [1] deals with T1, human MSLN-R3-his protein (human, UniProt Q13421 487-598).
T1 construct: also called hMSLN-R3-his; not shown: His tag
Nature of the test: ELISA; antibody 0.1 nM. For orientation: An ELISA detects its analyte on a solid surface through an enzyme-linked reagent.

The target of test [2] is T2, human MSLN-R2-his protein (human, UniProt Q13421 391-486).
T2 construct: also called hMSLN-R2-his; not shown: His tag
Briefly: ELISA; antibody 1 nM.

Test [3] deals with T2, human MSLN-R2-his protein. Briefly: ELISA; antibody 0.0001 nM.
Test [4] has as its target T1, human MSLN-R3-his protein. Briefly: ELISA; antibody 100 nM.
The target in test [5] is T2, human MSLN-R2-his protein. Nature of the test: ELISA; antibody 0 nM (blank).
The target of test [6] is T1, human MSLN-R3-his protein. Briefly: ELISA; antibody 0.001 nM.
Test [7] deals with T1, human MSLN-R3-his protein. Nature of the test: ELISA; antibody 1 nM.
For test [8], the target named is T2, human MSLN-R2-his protein. Briefly: ELISA; antibody 1 nM. The source holds these as a separate data set.
For test [9], the target named is T3, human MSLN-R3-3 polypeptide (human).
T3 construct: also called hMSLN-R3-3
Nature of the test: ELISA; antibody 1 nM.

Test [10] has as its target T1, human MSLN-R3-his protein. Nature of the test: ELISA; antibody 0.01 nM.
In test [11] the target is T1, human MSLN-R3-his protein. Nature of the test: ELISA; antibody 1 nM. This is another data set of the same source.
For test [12], the target named is T2, human MSLN-R2-his protein. Nature of the test: ELISA; antibody 0.001 nM.
The target of test [13] is T1, human MSLN-R3-his protein. Nature of the test: ELISA; antibody 0.0001 nM.
The target in test [14] is T2, human MSLN-R2-his protein. Nature of the test: ELISA; antibody 0.1 nM.
The target in test [15] is T2, human MSLN-R2-his protein. Briefly: ELISA; antibody 10 nM.
The target of test [16] is T1, human MSLN-R3-his protein. Nature of the test: ELISA; antibody 0 nM (blank).
The target in test [17] is T2, human MSLN-R2-his protein. Nature of the test: ELISA; antibody 0.01 nM.
The target of test [18] is T2, human MSLN-R2-his protein. Nature of the test: ELISA; antibody 100 nM.
For test [19], the target named is T1, human MSLN-R3-his protein. Nature of the test: ELISA; antibody 10 nM.
Test [20] concerns the target T4, human MSLN-hFc protein (Acro, Cat. No. MSN-H5253) (human, UniProt Q13421 296-580).
T4 construct: bought
Briefly: ELISA, coated human MSLN-hFc.

Test [21] deals with T5, human MSLN-FL-his protein (human, UniProt Q13421 296-580).
T5 construct: made in HEK293E cells, purified on nickel column; also called hMSLN-FL-his; human MSLN full-length protein; not shown: His tag
Nature of the test: competitive ELISA; row F7.18.10.

Test [22] concerns the target T5, human MSLN-FL-his protein. Nature of the test: competitive ELISA; row F7.2.3.
For test [23], the target named is T5, human MSLN-FL-his protein. Briefly: competitive ELISA; row Tab142.
Test [24] has as its target T5, human MSLN-FL-his protein. Briefly: SPR (Biacore), antibody captured on Protein A chip.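 Note: flow cell at 25 °C, antigen injected for 240 s at five concentrations from 200 nM downward, dissociation followed up to 600 s, double-referenced, fitted with Langmuir 1:1 model.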 For orientation: In SPR one partner is held on a chip, and binding of the other changes the refractive index at the surface.
In test [25] the target is T5, human MSLN-FL-his protein. Briefly: competitive ELISA; row Tab021.
Test [26] has as its target T6, human MSLN-FL-his protein (human, UniProt Q13421 296-580).
T6 construct: also called hMSLN-FL-his; human MSLN full-length protein
Briefly: SPR (Biacore), antibody captured on Protein A, MSLN-FL-his injected.

The target of test [27] is T7, human MSLN-R3 on HEK293T-hMSLN-R3 recombinant cells (human, UniProt Q13421 487-606).
T7 construct: the C-terminal limit is uncertain; also called human MSLN-R3 membrane protein
Briefly: FACS, HEK293T-hMSLN-R3 cells. (A flow cytometer gives signals particle by particle.)

In test [28] the target is T8, monkey MSLN on HEK293T-monkey MSLN recombinant cells (monkey).
T8 construct: Full-length precursor as transfected; processing on the cell is not described; also called HEK293-monkey MSLN
T8 chain: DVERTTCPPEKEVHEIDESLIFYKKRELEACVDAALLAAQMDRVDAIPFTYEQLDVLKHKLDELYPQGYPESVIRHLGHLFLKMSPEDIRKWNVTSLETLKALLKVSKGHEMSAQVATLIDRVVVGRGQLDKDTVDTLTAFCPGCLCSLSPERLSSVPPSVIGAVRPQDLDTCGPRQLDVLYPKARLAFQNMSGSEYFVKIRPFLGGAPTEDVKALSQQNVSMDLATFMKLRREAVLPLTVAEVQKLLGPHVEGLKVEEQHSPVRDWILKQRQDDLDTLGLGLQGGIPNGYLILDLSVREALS
Nature of the test: FACS, HEK293T-monkey MSLN cells.

Test [29] has as its target human MSLN on OVCAR3 tumor cells (human, UniProt Q13421 296-598). Briefly: FACS, OVCAR3 cells.

Consider 7 molecules from patent US20250250357A1 (NANJING ZAIMING PHARMACEUTICAL, published 2025).

In general, Kd refers to the free concentration of one partner at which half of the binding sites on the other are occupied at equilibrium, for simple one-to-one binding. In general, koff refers to the rate constant with which the complex falls apart. As a reminder, the kon is the second-order rate constant of association. Usually EC50 stands for the concentration that produces a half-maximal response.

T1 sequence (Q13421 495-606): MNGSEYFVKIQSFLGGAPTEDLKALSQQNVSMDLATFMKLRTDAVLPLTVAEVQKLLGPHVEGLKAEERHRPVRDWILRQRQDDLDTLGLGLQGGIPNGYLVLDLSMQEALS
T2 sequence (Q13421 other isoform, or with tags, fused parts or gaps): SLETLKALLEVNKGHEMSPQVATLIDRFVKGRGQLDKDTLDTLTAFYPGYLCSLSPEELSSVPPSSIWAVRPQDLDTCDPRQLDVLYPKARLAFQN
T4 sequence (Q13421 other isoform, or with tags, fused parts or gaps limits assumed): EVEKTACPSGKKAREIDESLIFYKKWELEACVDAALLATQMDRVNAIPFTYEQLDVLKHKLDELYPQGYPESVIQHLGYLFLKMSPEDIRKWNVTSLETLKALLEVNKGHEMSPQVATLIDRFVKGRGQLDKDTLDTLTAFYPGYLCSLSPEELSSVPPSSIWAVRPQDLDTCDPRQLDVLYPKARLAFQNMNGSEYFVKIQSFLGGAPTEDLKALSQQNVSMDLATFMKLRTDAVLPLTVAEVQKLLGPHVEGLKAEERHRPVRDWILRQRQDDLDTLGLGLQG
T7 sequence (Q13421 495-614): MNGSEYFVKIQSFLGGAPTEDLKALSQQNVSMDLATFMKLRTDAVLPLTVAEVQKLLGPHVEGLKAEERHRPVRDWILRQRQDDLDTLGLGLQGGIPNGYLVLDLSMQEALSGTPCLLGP
Sequence of human MSLN on OVCAR3 tumor cells (Q13421 other isoform, or with tags, fused parts or gaps): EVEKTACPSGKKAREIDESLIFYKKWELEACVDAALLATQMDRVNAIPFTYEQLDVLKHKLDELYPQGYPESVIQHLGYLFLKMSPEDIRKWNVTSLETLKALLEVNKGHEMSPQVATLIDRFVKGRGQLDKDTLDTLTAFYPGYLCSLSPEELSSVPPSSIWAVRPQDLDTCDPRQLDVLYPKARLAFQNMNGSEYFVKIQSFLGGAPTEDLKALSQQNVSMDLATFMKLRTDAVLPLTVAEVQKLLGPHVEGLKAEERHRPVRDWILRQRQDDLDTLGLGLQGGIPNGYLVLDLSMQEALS

B1: Tab020 (YP223, rabbitIgG1) (antibody, V domains shown)
VH: QEQLEESGGDLVQPEGSLTLTCKASGLDFSSSYWICWVRQAPGKGLEWIGCRHTFTANTWSASWVNGRFTISRSTSLGTVDLKMTSLTAADTATYFCARDESNNDGWDFKLWGPGTLVTVSS
VL: AYDMTQTPASVSAAVGGTVTIKCQASQSISNYLAWYQQKPGQPPKLLIYQASTLAPGVSSRFKGSGSGTEFTLTISGVECADAATYYCQQGYTSSNVENVFGGGTGVVVGD
notes: Control antibody; VH and VL recombined into rabbit IgG1 CH and CL expression vectors; also called YP223 rabbit IgG1 antibody; rabbit anti-human MSLN antibody
For the molecule B1, the OD450 nm in [1] stood at 0.05; in test [2] it was 1.49; in test [3], 0.05; in test [4] it was 0.05; in test [5], 0.05; in test [6] it was 0.05. For the same molecule, the OD450 nm amounted to 0.05 in test [7]; 1.49 in test [8]; 0.09 in test [9]; 0.05 in test [10]; 0.05 in test [11]; 0.05 in test [12]. Besides, the OD450 nm in test [13] worked out at 0.05; in test [14], 0.2; in test [15], 2.01; in test [16] it was 0.05; in test [17], 0.07; in [18], 2.5. This molecule yielded an OD450 nm in test [19] of 0.05.

B2: F3.38.10-L2H3a (scFv, not shown: small tags and cut ends)
scFv: DIVMTQSPDSLAVSLGERATINCRSSQSLIHSDGNTYLQWYQQKPGQSPKLLIYKVSNRFSGVPDRFSGSGSGTDFTLTISSLQAEDVAVYYCSQTTHVPFTFGQGTKLEIKGGGGSGGGGSGGGGSEVQLVQSGAEVKKPGASVKVSCKASGYIFTDYYMNWVRQAPGQRLEWMGVINPKQGVISHNQKFKGRVTITVDKSANTAYMELSSLRSEDTAVYYCANYGSRFYAMDYWGQGTTVTVSS
Consider B2, for which, in test [20], the binding result was “no binding (tested: up to 100 nM)”.

B3: S009-F7.18.10 (antibody, human IgG1, kappa, V domains shown)
VH: QVQLQQSGAELVRPGTSVKVSCKASGYAFTNYLIEWVKQRPGQGLEWIGVINPGSGGTKYNEKFKGKATLTADKSSSTAYMQLSSLTSEDSAVYFCASDYDYDPFAYWGQGTLVTVSA
VL: DIVMTQSHKFMSTSVGDRVSITCKASQDVSTAVAWYQRKPGQSPKLLIYWASTRHTGVPDRFTGSGSGTDYTLTISYMQAEDLALYYCQQHYSTPYTFGGGTKLEIKR
notes: human-murine chimeric antibody, human IgG1/kappa constant regions
For the molecule B3, the competition rate is 97% in test [21], -29.4% in [22], 94.4% in test [23] and 9.2% in [25]. The same molecule yielded a Kd in test [24] of 0.64 nM. Besides, the koff in [24] worked out at 0.00117 s⁻¹. In test [24], the kon stood at 1.83e+06 M⁻¹ s⁻¹.

B4: S009-F3.7.3 (antibody, human IgG1, kappa, V domains shown)
VH: EVNFEESGGGLVQPGGSMKLSCVASGFTFSNYWMNWVRQSPEKGLEWVAQIRLKSDNYATHYAESVKGRFTISRDDFKSSVYLQMNNLRAEDTGIYYCTVGTGGYWGQGTTLTVSS
VL: DIVLTQSPASLAMSLGKRATISCRASESVSIVGTNVIHWFQQKPGQPPKLLIYHASNLETGVPARFSGSGSGTDFTLTIDPVEEDDVAIYHCLQSRKIPWTFGGGTKLEIKR
notes: chimeric, human IgG1/kappa
As to B4, the binding result in test [26] is recorded as “no binding”.

B5: S009-F3.16.1 (antibody, human IgG1, kappa, V domains shown)
VH: EVKFEESGGGLVQPGGSMKLSCVASGFTFSNYWMNWVRQSPEKGLEWVAQIRLKSDNYATHYAESVKGRFSISRDDSKSSVYLQMNNLRAEDTGIYYCSVGTGGYWGQGTTLTVSS
VL: DIVLTQSPASLALSPGKRATISCRASESVSIIGTDVIHWFQQKPGQPPKLLIYHASNLETGVPARFSGSGSRTDFTLTIDPVEEDDVAIYYCLQSRKIPWTFGGGTKLEIKR
notes: chimeric, human IgG1/kappa
Take B5: the binding result in [26] is on record as “no binding”.

B6: F7.33.24 (scFv)
chain: QVQLQQPGTELVKPGASVKLSCKASGYTFTSYWMHWVKQRPGQGLEWIGNVNPSNGGSNYNEKFKNKATLTVDKSSSTADMQLNSLTSEDSAVYYCAPHYIGSRPGFAYWGQGTLVTVSGGGGGSGGGGSGGGGSDIVMTQSQKFMSTSVGDRVSVTCKASQNVGTNIAWYQQKPGQSPKALIYSASYRYSGVPDRFTGSGSGTDFTLTITNVQSEDLAEYFCQQYNSYPLTFGGGTKVEIK
Consider B6, for which the EC50 in test [27] stood at 1.63 nM; in test [28] it was 7.97 nM; in test [29] it was 4.75 nM. Also, the Maximum_MFI in test [27] worked out at 1490 MFI; in [28] it was 8910 MFI; in test [29] it was 2260 MFI.

B7: F3.38.10-L1H5 (scFv, not shown: small tags and cut ends)
scFv: DIVMTQTPLSLPVTPGEPASISCRSSQSLIHSDGNTYLQWYLQKPGQSPQLLIYKVSNRFSGVPDRFSGSGSGTDFTLKISRVEAEDVGVYYCSQTTHVPFTFGQGTKLEIKGGGGSGGGGSGGGGSEVQLVQSGAEVKKPGASVKVSCKASGYIFTDYYMNWVRQAHGQRLEWMGVINPKNGVISHNQKFKGRVTITVDKSANTAYMELSSLRSEDTAVYYCANYGSRFYAMDYWGQGTTVTVSS
In the case of B7, the binding result in [20] was “no binding (tested: up to 100 nM)”.
